# Source: paper doi:10.1101/2025.04.14.648764 (bioRxiv, 2025)
# Positions count from the first letter of the chain named. Numbers in names are those of the source.
# B1: AGT WT (enzyme, human)
# chain: MASHKLLVTPPKALLKPLSIPNQLLLGPGPSNLPPRIMAAGGLQMIGSMSKDMYQIMDEIKEGIQYVFQTRNPLTLVISGSGHCALEAALVNVLEPGDSFLVGANGIWGQRAVDIGERIGARVHPMTKDPGGHYTLQEVEEGLAQHKPVLLFLTHGESSTGVLQPLDGFGELCHRYKCLLLVDSVASLGGTPLYMDRQGIDILYSGSQKALNAPPGTSLISFSDKAKKKMYSRKTKPFSFYLDIKWLANFWGCDDQPRMYHHTIPVISLYSLRESLALIAEQGLENSWRQHREAAAYLHGRLQALGLQLFVKDPALRLPTVTTVAVPAGYDWRDIVSYVIDHFDIEIMGGLGPSTGKVLRIGLLGCNATRENVDRVTEALRAALQHCPKKKL
# B2: AGT LM-p.I244T p.S81A (enzyme, human)
# chain: B1 chain with P11L, S81A, I244T, I340M
# B3: AGT LM p.S81D (enzyme, human)
# chain: B1 chain with P11L, S81D, I340M
# B4: AGT LM p.S81A (enzyme, human)
# chain: B1 chain with P11L, S81A, I340M
# B5: AGT LM-p.G170R p.S81A (enzyme, human)
# chain: B1 chain with P11L, S81A, G170R, I340M
# B6: AGT LM-p.G170R (enzyme, human)
# chain: B1 chain with P11L, G170R, I340M
# B7: AGT LM-p.I244T p.S81D (enzyme, human)
# chain: B1 chain with P11L, S81D, I244T, I340M
# B8: AGT LM-p.I244T (enzyme, human)
# chain: B1 chain with P11L, I244T, I340M
# B9: AGT LM (enzyme, human)
# chain: B1 chain with P11L, I340M
# B10: AGT WT p.S81A (enzyme, human)
# chain: B1 chain with S81A
# B11: AGT LM-p.G170R p.S81D (enzyme, human)
# chain: B1 chain with P11L, S81D, G170R, I340M
# B12: AGT WT p.S81D (enzyme, human)
# chain: B1 chain with S81D
# Target: the molecule itself
# Assay: dynamic light scattering
row,Protein,stoichiometry N
1,B1,2
2,B2,2
3,B3,2
4,B4,2
5,B5,2
6,B6,2
7,B7,2
8,B8,2
9,B9,2
10,B10,2
11,B11,2
12,B12,2
